# Experimental data reported in US20220235136A1, “METHODS AND COMPOSITIONS FOR TREATING A DISEASE OR DISORDER” (YALE UNIVERSITY, priority 2019, published 2022).
# Experiments:
# CD93 binding by MMRN2 = target: T1, CD93 binding by MMRN2 (Homo sapiens, UniProt Q9NPY3); assay: MMRN2-Ig binding to CD93-expressing CHO cells in the presence of IGFBP7-His; settings: IGFBP7 added
# T1 construct: expressed in transfected cells
# T1 sequence (Q9NPY3 22-652): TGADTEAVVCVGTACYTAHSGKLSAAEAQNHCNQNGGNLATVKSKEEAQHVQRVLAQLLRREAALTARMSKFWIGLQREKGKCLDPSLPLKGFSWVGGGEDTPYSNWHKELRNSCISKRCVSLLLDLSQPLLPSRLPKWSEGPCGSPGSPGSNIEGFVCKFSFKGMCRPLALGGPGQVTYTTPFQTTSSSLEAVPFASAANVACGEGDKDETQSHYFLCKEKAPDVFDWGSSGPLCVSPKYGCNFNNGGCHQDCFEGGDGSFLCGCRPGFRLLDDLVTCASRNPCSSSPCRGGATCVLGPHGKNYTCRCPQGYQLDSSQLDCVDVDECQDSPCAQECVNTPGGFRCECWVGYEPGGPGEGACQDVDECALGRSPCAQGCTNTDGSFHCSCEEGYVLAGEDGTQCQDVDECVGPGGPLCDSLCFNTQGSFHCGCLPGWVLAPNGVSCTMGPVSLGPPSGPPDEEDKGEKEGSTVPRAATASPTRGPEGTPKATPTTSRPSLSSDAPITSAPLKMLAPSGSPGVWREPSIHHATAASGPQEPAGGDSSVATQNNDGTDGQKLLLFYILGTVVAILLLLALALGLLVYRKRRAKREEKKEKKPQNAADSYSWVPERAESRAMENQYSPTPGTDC
# T1 sequence (Q9H8L6 23-949 partner): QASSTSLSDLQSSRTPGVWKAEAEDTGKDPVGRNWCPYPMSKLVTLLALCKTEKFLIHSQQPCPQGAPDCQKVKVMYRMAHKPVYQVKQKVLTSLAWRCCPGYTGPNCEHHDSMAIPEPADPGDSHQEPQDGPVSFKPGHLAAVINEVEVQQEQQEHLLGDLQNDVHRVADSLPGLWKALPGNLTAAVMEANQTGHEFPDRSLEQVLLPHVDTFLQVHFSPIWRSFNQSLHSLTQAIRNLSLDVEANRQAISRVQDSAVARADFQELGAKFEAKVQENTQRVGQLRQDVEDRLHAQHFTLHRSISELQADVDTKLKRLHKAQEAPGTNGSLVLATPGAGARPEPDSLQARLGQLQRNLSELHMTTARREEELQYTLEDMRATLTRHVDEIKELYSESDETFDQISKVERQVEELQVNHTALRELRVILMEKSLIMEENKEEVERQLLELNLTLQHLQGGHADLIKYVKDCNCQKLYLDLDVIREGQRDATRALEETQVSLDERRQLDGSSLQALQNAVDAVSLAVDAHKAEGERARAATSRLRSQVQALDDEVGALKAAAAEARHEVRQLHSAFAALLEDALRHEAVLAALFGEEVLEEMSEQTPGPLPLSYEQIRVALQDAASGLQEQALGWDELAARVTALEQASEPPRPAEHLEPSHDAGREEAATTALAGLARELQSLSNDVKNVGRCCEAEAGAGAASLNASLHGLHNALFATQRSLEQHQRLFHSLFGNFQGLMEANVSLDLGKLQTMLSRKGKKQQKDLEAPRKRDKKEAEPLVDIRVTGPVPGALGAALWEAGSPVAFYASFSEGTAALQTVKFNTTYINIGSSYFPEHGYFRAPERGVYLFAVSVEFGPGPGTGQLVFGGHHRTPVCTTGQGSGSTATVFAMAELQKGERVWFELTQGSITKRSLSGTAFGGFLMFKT
# Method: In FIG. 28A, binding of HEK293 T cells transfected to express group 14 C-type lectin molecules were stained for the binding of IGFBP7-Ig and MMRN2-Ig. In FIG. 28B. CHO cells stably expressing CD93 were stained with control or MMRN2-Ig, with or without the presence of IGFBP7-His protein. In FIG. 28C, well coated with IGFBP7-His protein were incubated with CD93-His protein before examining for MMRN2-Ig binding by ELISA. Wells coated with CD93-His protein were used as a positive control. In FIG. 28D. HEK293T cells transfected with control or CD93 construct were stained with MMRN-Ig for binding, with or without the presence of anti-mCD93 (7C10). In FIG. 28E HEK293T cells transfected to express different mouse CD93 mutants were stained with anti-CD93 (7C10), IGFBP7-Ig, and MMRN2-Ig.
# CD93 = target: T2, CD93 (Homo sapiens, UniProt Q9NPY3); assay: binding of Ig fusion proteins to CD93 transfectant (flow cytometry)
# T2 construct: expressed in transfected cells; host or cells: 293 cells (CD93+ 293)
# T2 sequence (Q9NPY3 22-652): T1 sequence (Q9NPY3 22-652)
# Text: FIGS. 10A-10B show identification of the binding domain on IGFBP7 for CD93. Each extracellular domain for IGFBP7, including insulin binding (IB). Kazal, and Ig, was swapped with the corresponding domain on IGFBPL1 using PCR cloning and fused to a C-terminal Ig. These chimeric mutants were transiently expressed in HEK293T cells and supernatants were used to stain CD93 transfectant. FIG. 10A depicts whether multiple chimeric IGFBP7 mutants bind to CD93. FIG. 10B depicts various human genes containing IB-domain constructed onto an expression vector containing Fc-Tag. Constructs were transiently transduced into HEK293T cells to produce Fc tagged fusion proteins in the supernatant. Supernatant was used to stain CD93 transfectant by flow cytometry. Binding index represents the ratio of binding MFI of CD93 transfectant to control cells.
# The IGFBP7-IGFBPL1 chimeras were generated by two-step PCR. […]
# Cell surface and intercellular staining and analysis by flow cytometry were followed the protocol previously described (71). Dead cells were excluded with SYTOX® (Blue Dead Cell Stain Kit (Thermo Fisher Scientific). Flow cytometric analysis was conducted with a BD FACS Calibur or a BD LSRFortessa™ cell analyzer (BD Bioscience, Franklin Lakes, N.J. USA), and then data were analyzed by FlowJo software (Tree Star Inc.)
# human IGF1R = target: T3, human IGF1R (Homo sapiens, UniProt P08069); assay: IGFBP7-Ig binding to IGF1R transfected CHO cells (flow cytometry)
# T3 construct: expressed in transfected cells; host or cells: CHO
# Method: Wild type CHO and IGF1R transfected CHO cells were stained for human IGF1R staining antibody to confirm surface IGF1R expression. At the same time, cells were incubated with IGFBP7-Ig for possible interaction by flow cytometry analysis, […]
# HUVEC cells = assay: HUVEC tube formation and transwell migration assay with exogenous IGFBP7 protein; type: cell-based, human
# Method: Pooled human umbilical vein ECs (HUVEC) purchased from Thermo Fisher were cultured in Medium 200 with LVES (Life Technologies). C57BL/6 mouse primary aortic ECs and the endothelium culture medium with supplement were purchased from Cell Biologics. For tube formation, HUVECs at 2×10^4 cells/ml were plated on Matrigel in 24-well plate. Image was recorded even 4-6 hours after incubation. The Transwell 6.5 mm polycarbonate membrane inserts pre-loaded in 24-well culture plates (Corning 3422, 8 um) were used in the cell migration model. HUVEC cells at 1×10^5/ml in 200 μl were loaded into each 24-well insert with 500 μl IBS-containing medium with different reagents in the lower chamber. After approximately 20 hours, the migrated cells were fixed with methanol, stained with Giemsa solution and counted under a light microscope.
# B16 melanoma = assay: subcutaneous B16 melanoma mouse tumor model; settings: alone or combination
# Method: For B16 tumor model, C57BL/6 mice were inoculated subcutaneously with B16 melanoma at 2×1^5 per mouse. […] CD93 mAb (300 μg i.p.) treatment was administrated on the day of randomization (day 0), day 4 and day 9. 5-FU (3.5 mg i.p.) was administrated on day 2 and day 7. Measurements of tumor size were taken every 2 or 3 days. When tumor volume was exceeding 2000 mm^3 and/or ulceration formed, tumor bearing mice were considered as death for the calculation of survival curve.
# [1] = system: IGFBP7 expression in tumor endothelial cells; settings: 24 hours after treatment; published RNA-Seq data; cited from earlier work
# T3 sequence (P08069 31-736 limits assumed): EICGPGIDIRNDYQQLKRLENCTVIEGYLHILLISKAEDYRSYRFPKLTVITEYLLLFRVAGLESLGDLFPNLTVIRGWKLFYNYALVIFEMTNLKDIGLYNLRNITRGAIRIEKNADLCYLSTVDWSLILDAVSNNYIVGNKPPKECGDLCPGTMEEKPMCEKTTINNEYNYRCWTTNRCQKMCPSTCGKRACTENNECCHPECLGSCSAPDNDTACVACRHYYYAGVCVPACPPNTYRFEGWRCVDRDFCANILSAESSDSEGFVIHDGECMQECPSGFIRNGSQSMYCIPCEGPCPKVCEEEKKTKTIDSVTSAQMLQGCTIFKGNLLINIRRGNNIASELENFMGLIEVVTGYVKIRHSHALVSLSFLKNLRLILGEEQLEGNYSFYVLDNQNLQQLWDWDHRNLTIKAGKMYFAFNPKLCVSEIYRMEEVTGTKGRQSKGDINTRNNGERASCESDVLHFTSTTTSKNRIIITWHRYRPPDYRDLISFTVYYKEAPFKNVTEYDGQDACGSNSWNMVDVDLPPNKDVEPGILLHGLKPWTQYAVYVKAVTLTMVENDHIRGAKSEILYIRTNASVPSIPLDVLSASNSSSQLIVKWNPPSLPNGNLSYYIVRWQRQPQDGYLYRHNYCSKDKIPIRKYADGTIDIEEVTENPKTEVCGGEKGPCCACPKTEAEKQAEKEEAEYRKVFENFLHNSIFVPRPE
# T3 sequence (P08069 741-1367 limits assumed): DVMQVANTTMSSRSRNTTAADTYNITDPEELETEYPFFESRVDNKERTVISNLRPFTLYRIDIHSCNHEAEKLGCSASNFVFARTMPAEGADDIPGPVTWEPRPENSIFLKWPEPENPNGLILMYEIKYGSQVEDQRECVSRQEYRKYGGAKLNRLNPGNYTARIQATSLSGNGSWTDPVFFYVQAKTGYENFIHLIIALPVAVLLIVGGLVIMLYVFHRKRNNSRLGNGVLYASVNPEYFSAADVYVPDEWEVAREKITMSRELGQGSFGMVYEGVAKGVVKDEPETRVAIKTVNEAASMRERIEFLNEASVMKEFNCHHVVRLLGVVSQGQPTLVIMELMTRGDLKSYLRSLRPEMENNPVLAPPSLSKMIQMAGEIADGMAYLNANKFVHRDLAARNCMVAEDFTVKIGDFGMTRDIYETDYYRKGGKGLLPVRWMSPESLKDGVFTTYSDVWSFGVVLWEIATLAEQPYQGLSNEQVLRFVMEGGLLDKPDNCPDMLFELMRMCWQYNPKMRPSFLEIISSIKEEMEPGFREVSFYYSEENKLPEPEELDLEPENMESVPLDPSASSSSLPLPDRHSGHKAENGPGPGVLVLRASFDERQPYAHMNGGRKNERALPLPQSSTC
compound,measurement,setting,value
IGFBP7: a secreted protein of the insulin growth factor binding protein (IGFBP) family; recombinant protein / Fc fusion,effect on the CD93 binding by MMRN2,CD93 binding by MMRN2,did not interfere
same,binding to CD93 293 cells / CD93 transfectant,CD93; flow cytometry,strongly
same,binding to group 14 C-type lectin molecules,CD93; transfected HEK293T cells,only bound to CD93
same,binding to human IGF1R transfectant,human IGF1R,fails to bind
same,tube formation or EC migration in CD93 knockdown HUVEC cells,HUVEC cells; CD93 siRNA,lost its effect
same,tube formation and proliferation of wild type HUVEC cells,HUVEC cells; exogenous protein added,increased
"O=c1[nH]cc(F)c(=O)[nH]1 [5-FU, 5-fluorouracil]",B16 tumor growth,B16 melanoma,modestly inhibited
aflibercept: a VEGF inhibitor,IGFBP7 in tumor ECs,[1],significantly inhibited
